The target in assay [1] is T1, VEGF (UniProt P15692-4 27-191, limits assumed, biotin-labelled (Sulfo-NHS biotin, molar ratio 2:1) in the BLI assay; unlabelled in the competition ELISA).
T1 construct: also called biotin-labeled VEGF
As to the kind of experiment: BLI (Octet-QK), biotin-VEGF on SA probe; repeat 2. The text has this: (§1) The binding affinities of the fusion proteins were detected using BLI (Bio-layer inteferometry, ForteBio). […] Excess biotin not involved in labeling was removed by dialysis. […] The buffer used in the experiment was PBS (containing 0.1% Tween-20). […] Based on the program settings, the fusion proteins were bound, and then dissociated in PBST solution, to obtain the experimental curves. According to the result analysis software of Octet-QK, local full was used to fit the curves of the experimental results, then kon, kdis and Kd were determined.
In general terms: BLI is a label-free optical method that tracks binding on a fibre tip over time.

Assay [2] has as its target T1, VEGF. As to the kind of experiment: competition ELISA: sample pre-mixed with VEGF, mixture put on a plate coated with VEGF Receptor 2 (KDR), bound VEGF detected with mouse anti-human VEGF antibody, OD450; blocked ligand-receptor pair VEGF/KDR. The procedure:
(§2) The plate was then blocked with 1% BSA/TBS and placed at 37° C. for 1 h; 1% BSA/TBS was added to the plate, 200 μL per well, and placed at 37° C. for 2 h.
(§3) Then, the stock solutions were diluted by 3 times to a total of 11 concentrations. […] The KDR-coated ELISA plate was washed twice and pat-dried. The mixture was successively transferred to the ELISA plate and placed at 37° C. for 1 h, then the plate was washed for 6 times. […] The plate was placed at 37° C. for 1 h and washed for 6 times. Then, goat anti-rat secondary antibody (Pierce, 31432, QA1969921) diluted at 1:1000 was added, 50 μL per well. The plate was placed at 37° C. for 1 h and washed for 6 times. Color developing solution was added after reaction, and the plated was incubated at 37° C. for 15 min. Stop buffer was added to terminate the color reaction. OD450 values were read on a microplate reader.

Assay [3] has as its target T1, VEGF. As to the kind of experiment: BLI (Octet-QK), biotin-VEGF on SA probe; average of 3 repeats (STD 0.11).
Source text: as §1

Assay [4] addresses T1, VEGF. As to the kind of experiment: competition ELISA: inhibition of VEGF binding to plate-coated VEGF Receptor 2 (KDR). The procedure: as §2, §3
In general terms: In an ELISA, binding on a coated surface is turned into a signal by an enzyme label.

Assay [5] deals with T1, VEGF. Briefly: BLI (Octet-QK), biotin-VEGF on SA probe; repeat 3.
Source text: as §1

Assay [6] concerns the target T1, VEGF. As to the kind of experiment: BLI (Octet-QK), biotin-VEGF on SA probe; repeat 1.
Source text: as §1

T1 sequence (P15692 other isoform, or with tags, fused parts or gaps limits assumed): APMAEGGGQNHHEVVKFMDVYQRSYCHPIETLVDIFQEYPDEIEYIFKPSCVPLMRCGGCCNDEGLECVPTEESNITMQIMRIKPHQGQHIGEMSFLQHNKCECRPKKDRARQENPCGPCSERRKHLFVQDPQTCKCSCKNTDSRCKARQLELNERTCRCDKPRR

B1: PU98x43-ARVEGF (designed binder)
chain: AEPAAPAPAEPAAPAPEAPAAEPAAPAPAEPAAPAPEAPAAEPAAPAPAEPAAPAPEAPAAEPAAPAPAEPAAPAPEAPAAEPAAPAPAEPAAPAPEAPAAEPAAPAPAEPAAPAPEAPAAEPAAPAPAEPAAPAPEAPAAEPAAPAPAEPAAPAPEAPAAEPAAPAPAEPAAPAPEAPAAEPAAPAPAEPAAPAPEAPAAEPAAPAPAEPAAPAPEAPAAEPAAPAPAEPAAPAPEAPAAEPAAPAPAEPAAPAPEAPAAEPAAPAPAEPAAPAPEAPAAEPAAPAPAEPAAPAPEAPAAEPAAPAPAEPAAPAPEAPAAEPAAPAPAEPAAPAPEAPAAEPAAPAPAEPAAPAPEAPAAEPAAPAPAEPAAPAPEAPAAEPAAPAPAEPAAPAPEAPAAEPAAPAPAEPAAPAPEAPAAEPAAPAPAEPAAPAPEAPAAEPAAPAPAEPAAPAPEAPAAEPAAPAPAEPAAPAPEAPAAEPAAPAPAEPAAPAPEAPAAEPAAPAPAEPAAPAPEAPAAEPAAPAPAEPAAPAPEAPAAEPAAPAPAEPAAPAPEAPAAEPAAPAPAEPAAPAPEAPAAEPAAPAPAEPAAPAPEAPAAEPAAPAPAEPAAPAPEAPAAEPAAPAPAEPAAPAPEAPAAEPAAPAPAEPAAPAPEAPAAEPAAPAPAEPAAPAPEAPAAEPAAPAPAEPAAPAPEAPAAEPAAPAPAEPAAPAPEAPAAEPAAPAPAEPAAPAPEAPAAEPAAPAPAEPAAPAPEAPAAEPAAPAPAEPAAPAPEAPAAEPAAPAPAEPAAPAPEAPAAEPAAPAPAEPAAPAPEAPAAEPAAPAPAEPAAPAPEAPAAEPAAPAPAEPAAPAPEAPAGSDLDKKLLEAARAGQDDEVRILMANGADVNARDSTGWTPLHLAAPWGHPEIVEVLLKNGADVNAADFQGWTPLHLAAAVGHLEIVEVLLKYGADVNAQDKFGKTAFDISIDNGNEDLAEILQKAA
notes: also called PU-ARVEGF fusion protein
As for B1, the Kd in assay [1] turned out to be 490 pM; in assay [3], 510 pM; in assay [5] it was 420 pM; in assay [6], 630 pM. Besides, the “IC50 (read off the curve)” value in assay [2] is around 300 pM. The IC50 in assay [4] came to 510 pM.

A word on the Kd: it is the equilibrium constant for the complex coming apart. One may read the IC50 as the point on the concentration scale where inhibition reaches its midpoint.
